± gives the uncertainty stated by the source.

The values below come from the supplement of paper PMC12042874.

The series can be described thus: amyloid nucleation score (Sup35N fusion, yeast selection) (log enrichment); library NNK3; higher = more nucleation; inactive = no reads after selection. A digest of the protocol:
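Libraries of peptides of 20 random codons fused to Sup35N were expressed in psi-negative yeast and induced 24 hours with 100 μM copper sulfate. Selection was 7 days at 30°C on medium lacking adenine and uracil, and plasmid inserts were Illumina-sequenced before and after selection. Nucleation score is the DiMSum log enrichment of output over input reads, centred on the mode score of non-aggregating sequences, and sequences with under 100 input reads were left out.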
Turning to YLEKAL, the amyloid nucleation score result was “inactive”.
The value for PHVLVESLW was “inactive”; that for DRISGFVIKYNFNLSFSEMW was 0.52 ± 0.17.
The value for VFGMKSRDIRIS was “inactive”; that for ATELYLGVICNKMRW was “inactive”; that for PWDDYTAQIGLYSFPPWLYV was “inactive”.
Under GNLLMYHGIWGTNALEDRYL stands “inactive”.
As for DHRNVRRLKVRLTECIE, the amyloid nucleation score result is “inactive”.
The value for YRVWTVYRVYILAGTKNIRS was “inactive”; that for ANGNNSLTATLTNAVD was “inactive”.
Under LARPHDNSGCCSSNCDLRSC stands “inactive”; under VPEVG, “inactive”.
Under SRVHPPLWIKCTVGMVPQTC stands “inactive”; under IFNALCYTWESRFLRTEVVS, “inactive”; under LRMFNGSEAIYFMLVQSLFR, “inactive”.
With LACLIHS, the amyloid nucleation score result was “inactive”.
Turning to LTRFQ, the amyloid nucleation score result is “inactive”.
The value for VLDVFKGIW was “inactive”; that for KTLVRNMDNKPCRFSLTSNF was “inactive”.
The value for FVLVGL was “inactive”; that for LSVGVSRCLNPLLTIGSGRE was 1.28 ± 0.096; that for QPVICNIRSSRCV was “inactive”.
Under RVVLHITGLLPSSKKGVRGE stands 0.433 ± 0.25; under SSFNFTSIVLHIANLLHFFL, “inactive”; under VVMRFCWRKSTIVISFVTVM, “inactive”.
Turning to DLQYLMLHVHNFYICDRYQP, the amyloid nucleation score entry is “inactive”.
The value for LEKELRLCSKAWLSSQISIV was “inactive”; that for KVCVIVVLLHTTRCQKFYQY was “inactive”.
As to GSNQMPDPPHWPRDYNAEKR, the amyloid nucleation score entry is “inactive”.
The value for GITMFGLHMYQNDCLEVAWL was 0.904 ± 0.25.
Under CVSIGVVMCFCKSRFAITFV stands “inactive”; under TRNMRWNFVDLARNRASLNS, “inactive”; under TIWAGMLASR, “inactive”.
The value for VTKVYGDVVLEWRHDVLFGG was 0.503 ± 0.32; that for FFRDQLRRLYLSSALMQFRM was “inactive”.
Consider TSVSPRHLVSTSTMICSFAH, for which the amyloid nucleation score result is “inactive”.
As for SEVVIWFAWYMSLLNPGLYA, the amyloid nucleation score result is “inactive”.
Under MLAHGFCQVSEWSRALFLRV stands -0.244 ± 1.5.
Turning to GCVRGCTATWRMLCAGSKCC, the amyloid nucleation score is 0.71 ± 0.33.
Under RCVGEACVNGGCLITITYVG stands 1.16 ± 0.11; under RKLNNTSTSHGICVGAWITN, “inactive”; under IVLCMVFCWSRPWEVIIFKV, “inactive”.
Under SFFRMSFC stands 2.91 ± 0.06; under PNAEGFFSVSGFCVVLNQSM, 1.34 ± 0.087; under TSEVVQ, “inactive”.
The value for QILVLHIR was 1.71 ± 0.079.
As for AVSLTW, the amyloid nucleation score entry was “inactive”.
Regarding TRRQTGYILSTLWLAHCHFR, the amyloid nucleation score result was “inactive”.
The value for VRKPECSVVWVNQCWVQPPY was 2.15 ± 0.062; that for PCYDWCLQSGR was “inactive”; that for IYGVSESVYWIVWANIGVLQ was “inactive”.
Turning to VVGIKKDRNNTYDSSWLASC, the amyloid nucleation score entry was “inactive”.
Take NILRTRSRF: the amyloid nucleation score result was “inactive”.
Under IYRLFSARDDIVKDWRR stands “inactive”; under SFDILTAVVT, “inactive”.
As to HRDETGVHAVALSKSVWYKW, the amyloid nucleation score was -1.07 ± 1.1.
The value for FSTWNKRRMLYRHSGLFRQS was “inactive”.
The value for IIMRDYTAMCI was “inactive”; that for MLSMTRCAHIDGGDWFKMAV was “inactive”; that for CIRGVQNTGCGAQACYPVCR was “inactive”.
The value for KMDLFVRIVSCLVNGCQTTG was “inactive”; that for FFRNDCGHVFSYVAGSES was “inactive”.
With FLDDSFVFGNRRRWAWGCRG, the amyloid nucleation score result was “inactive”.
Under QIVYSLILGDPPAASVWEKS stands “inactive”.
Under VHSIYSTNFVLVFIPQSSVN stands 1.9 ± 0.075; under HSCITFSLPCTFRQRFCLLS, “inactive”; under NSVRLCRCEVIGQTIRDHGF, “inactive”.
The value for CIAPILFPALAHQLLLAKGH was “inactive”; that for SSISVRENYFMASRVMMVGC was 0.234 ± 0.56.
As for CYYDEVFAFLSLMTFRIQNK, the amyloid nucleation score entry is “inactive”.
The value for HLWVSVVNSTESSMTMA was “inactive”; that for TDFDNFSDTF was “inactive”.
VKCVYERRDGRLWLMILAMG: the amyloid nucleation score is -0.481 ± 0.52.
Under VTYYKSMYTREHFWTLGNSF stands 0.69 ± 0.21; under NESHILPVVVMDCLRTFPTE, “inactive”.
Under PNRFNIIHVKFRFSFYATLT stands “inactive”.
On to MSYMMSSTPSVFMACLGDS, for which the amyloid nucleation score entry is “inactive”.
With RQHMDGVVDI, the amyloid nucleation score entry was “inactive”.
RCLEEP: the amyloid nucleation score worked out at 0.145 ± 0.34.
Under MYTTDYVYRVLVSHFRVPRM stands “inactive”; under ANSWIILHSNHFLQFVGIAS, “inactive”.
The value for SRLTAFMNYVGCRMVSGWTR was “inactive”.
The value for WLVGFLFILWV was “inactive”; that for GWMSATVLFQLSE was “inactive”.
Take SVTFDAWYCWMN: the amyloid nucleation score result was “inactive”.
The value for DFFLRVMYMKWNAPL was “inactive”; that for KNTSIK was “inactive”.
Under LFSLCWRCTLLKLYCPNWCY stands “inactive”; under GNIVLMMSYILM, 2.3 ± 0.086; under DLNRYSWSRKRRLCCSHCRG, “inactive”.
Under TNFPLALSSRIPSASQISMQ stands -0.547 ± 1.5; under AHGFLSVFV, 0.92 ± 0.12; under GDVIMCFNFRTFLSTITPGS, 1.96 ± 0.092.
As for IFQKIECLTGMGIVGCSTSM, the amyloid nucleation score entry is “inactive”.
RDEVLNSHFIVGSRMRSNVA yielded an amyloid nucleation score of 1.31 ± 0.14.
The value for YRWGRVYPSAFSLCKLRYKL was “inactive”; that for TLNSDVSGSNIWASSYG was “inactive”; that for EIQSVMLYIASTFSILYLRH was “inactive”.
The value for VSVLCMYFVVGPKMVRVSYG was “inactive”; that for IERCVFAFCYCSLGQSAKSF was 1.49 ± 0.14.
The value for SSESDVNLDVMSKYKFGNIH was “inactive”; that for RLINVMVCYLLEGCQGLLL was 1.67 ± 0.1.
For MCKMLFSFLCLHKYCWVNVL, the amyloid nucleation score entry is “inactive”.
Under IILFKCWCKWEASGSATIVD stands “inactive”; under LTMSRMMYLDKMLYFLYVQW, “inactive”.
The value for LVLGWWAIFGVDYGHSSYLL was “inactive”; that for WLFAIFGDGAVFGSYGGWGV was “inactive”.
The substance MQLIIIWATRK returned an amyloid nucleation score of 1.43 ± 0.14.
On to PKFYH, for which the amyloid nucleation score entry was “inactive”.
The value for LYGAWSNIPLYMFSFHFMYR was “inactive”; that for LAGSCMGLMCWVVDARAVGR was 0.06 ± 0.64.
Under FIANGSDILADLFLHTSFHG stands “inactive”; under RVGTAF, -0.517 ± 0.84; under LSLREE, “inactive”.
NEMHFLS: the amyloid nucleation score entry is “inactive”.
Under RYILRSL stands “inactive”.
For HPLDYTVGSVVMGV, the amyloid nucleation score result is “inactive”.
The value for WFISTFDLDRYKFASCSKAW was “inactive”.
As to VFSFLYIRNV, the amyloid nucleation score turned out to be 1.55 ± 0.087.
Under ESWVFRTRDMPGEFTSSVCM stands “inactive”.
Under AHKIVFELTYTVLS stands “inactive”; under ILSVYDFNWFWKAKRDLYIS, “inactive”; under DFLYRGMNGSGFPLCIYQRC, “inactive”.
The value for NSFMCCRSWDTN was 2.71 ± 0.069.
Regarding EYAKMSLCPSYRFCVLFASW, the amyloid nucleation score result is “inactive”.
Under MTSFVWSCWRHYYRSRIVVV stands “inactive”; under HMSVVSVFIRRMPNASSTRR, 0.562 ± 0.13.
Take IYSVGYRSS: the amyloid nucleation score result was “inactive”.
Under FRKTGFSFVFLIVDEYFICN stands “inactive”; under ALDMVLYL, “inactive”; under IVRIVK, “inactive”.
Under WFPMSAKLYAHATHCVPLSL stands “inactive”.
